The target of series [1] is T1, Human serum albumin (HSA), denatured (Homo sapiens, UniProt P02768 P02768:25-609). Put plainly: EMSA; tested in lane 1, not listed among binders; PBS pH 6, 50 mM DTT, 1% SDS. The conditions noted are these: tags: none; denatured with 1% surfactant and reduced with DTT or TCEP; label: 5'-fluorescein. As for the experimental part: (§1) Gel shift assays were then performed to determine which of these nucleic acids would bind to HSA under denaturing and reducing conditions. Specifically, 40 nmol of the fluorescein labeled DNA was incubated with 3 μM denatured HSA in PBS (pH=6) containing 50 mM fresh DTT and 1% SDS at room temperature for 1 hr. The samples were then run on an 8% nondenaturing gel (PBS pH=6, 0.1% SDS) at 100 V for 1 hour at 4° C. The gels were imaged using a Typhoon FLA 9500 gel imager using a 473 nm laser and an LPB filter. FIG. 12 is a representative gel showing the results of the gel shaft assays for the fluorescein labeled forms of the following nucleic acids: 35 (lane 1), 36 (lane 2), 40 (lane 3), H1 (lane 4), H2 (lane 5), H3 (lane 6) and H5 (lane 7).

The target of series [2] is T1, Human serum albumin (HSA), denatured. Put plainly: EMSA; tested in lane 5, not listed among binders; PBS pH 6, 50 mM DTT, 1% SDS. The conditions noted are these: tags: none; denatured with 1% surfactant and reduced with DTT or TCEP; label: 5'-fluorescein. The method, then:
as §1
Background: A gel shift assay detects complexes by their altered migration in electrophoresis.

The target is the same in series [3]. Put plainly: EMSA; tested in lane 7, not listed among binders; PBS pH 6, 50 mM DTT, 1% SDS. The following applies: tags: none; denatured with 1% surfactant and reduced with DTT or TCEP; label: 5'-fluorescein. As for the experimental part: as §1
Series [4] has the same target. The experiment in a line: pulldown; 1% SDS or Tween 80 with 50 mM DTT, or 1% Tween 80 with 25 mM TCEP, PBS pH 7.4; blank beads control. The following applies: tags: none; denatured with 1% surfactant and reduced with DTT or TCEP; label: 5'-fluorescein (gel shift) or 5'-thiol-hexaethylene glycol on magnetic beads (pull-down). As for the experimental part: Pull-down. HSA (2 mg/mL from Gemini) was denatured in 1% surfactant (either Tween 80 or SDS) and 50 mM DTT in PBS (pH=7.4) for 1 hr. The binding buffers consisted of 50 mM freshly prepared DTT. The beads were equilibrated with 2 mL of the binding buffer used during the pull-down prior to protein addition. Protein (40 μg/mL) was then added to the columns and these were placed on a nutating mixer for 1 hr. The samples were then placed on the magnetic separation stand for 4 min, and the supernatant was removed. The beads were then washed twice with 1 mL binding buffer, collecting the supernatant each time. Bound protein was eluted using 300 μL of 4M urea with 0.1% surfactant and repeated to recover all bound protein. For each elution, the beads were incubated at 95° C. for 10 min. The beads were regenerated by rinsing with 1 mL of 1M NaCl followed by 2 mL of PBS. They were then stored in PBS in the refrigerator.
The aliquots were then concentrated using a 10 kDa Amicon spin filter. The samples were run on a NuPAGE™ Novex™ 4-12% Bis-Tris protein gel at 200 V for 40 min and stained with Spyro Ruby. The gels were visualized with a Typhoon FLA 9500 gel imager using a 473 nm laser and an LPG filter. FIG. 13 is a gel showing the results of the pull down (using nucleic acid 36) of HSA denatured with SDS (upper image) or Tween 80 (lower image) and reduced with DTT.
HSA binding with TCEP. […]

The target is the same in series [5]. Put plainly: pulldown; 1% surfactant, 50 mM DTT or 25 mM TCEP, PBS pH 7.4, 40 ug/mL HSA. The conditions noted are these: tags: none; denatured with 1% surfactant and reduced with DTT or TCEP; label: 5'-fluorescein (gel shift) or 5'-thiol-hexaethylene glycol on agarose (pull-down). As for the experimental part:
The beads were equilibrated with 3 bed volumes of the binding buffer used during the pull-down prior to protein addition. Protein (40 μg/mL) was then added to the columns and placed on a nutating mixer for 45 min followed by 15 minutes of stationary incubation. The supernatant was then collected via centrifugation. The resin was then washed twice with 700 μL binding buffer, collecting the flow-through each time. Bound protein was then eluted using 300 μL 4 M urea with 0.1% surfactant and repeated to recover all bound protein. For each elution, the column was placed on a nutating mixer for 30 min. The A280 was then measured for each aliquot to determine the percent bound.

Series [6] shares this target. Put plainly: EMSA; tested in lane 4, not listed among binders; PBS pH 6, 50 mM DTT, 1% SDS. The following applies: tags: none; denatured with 1% surfactant and reduced with DTT or TCEP; label: 5'-fluorescein. The method, then:
as §1

Series [7] has the same target. The experiment in a line: EMSA; tested in lane 6, not listed among binders; PBS pH 6, 50 mM DTT, 1% SDS. The conditions noted are these: tags: none; denatured with 1% surfactant and reduced with DTT or TCEP; label: 5'-fluorescein. The method, then:
as §1

T1 sequence (P02768 25-609, one chain of several): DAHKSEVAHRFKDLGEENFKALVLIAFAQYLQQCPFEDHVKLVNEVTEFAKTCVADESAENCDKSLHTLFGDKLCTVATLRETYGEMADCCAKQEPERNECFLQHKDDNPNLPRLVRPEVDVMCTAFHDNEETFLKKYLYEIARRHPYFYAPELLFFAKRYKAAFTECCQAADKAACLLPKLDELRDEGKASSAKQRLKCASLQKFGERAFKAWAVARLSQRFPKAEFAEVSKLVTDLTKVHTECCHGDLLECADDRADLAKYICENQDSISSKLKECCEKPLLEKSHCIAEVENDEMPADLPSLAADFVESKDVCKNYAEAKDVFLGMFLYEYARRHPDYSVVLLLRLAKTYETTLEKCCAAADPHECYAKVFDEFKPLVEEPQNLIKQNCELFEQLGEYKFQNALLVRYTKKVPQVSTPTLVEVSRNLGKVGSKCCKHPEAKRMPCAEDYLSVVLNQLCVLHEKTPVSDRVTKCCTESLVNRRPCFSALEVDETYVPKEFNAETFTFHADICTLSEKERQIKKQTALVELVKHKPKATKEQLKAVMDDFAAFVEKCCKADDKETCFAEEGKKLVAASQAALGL

B1: 35 (ssDNA)
DNA: GCGCATACCAGCTTATTCAATTCGGTACGTGACGCAAAAAAGGTCGGGCGGCTGACATGGCACCTCGTCTAAAGATAGTAAGTGCAATCTCGGC
Turning to B1, in series [1], the binding result is “no binding”.

B2: H2 (ssDNA)
DNA: GCGCATACCAGCTTATTCAATTTCAAAGGCTGACCGGATGGGCTTCGTGACCGGGTACGCCACTGCCTCGTGAGATAGTAAGTGCAATCTCGGC
Take B2: the binding result in series [2] is on record as “no binding”.

B3: H5 (ssDNA)
DNA: GCGCATACCAGCTTATTCAATTAGGAACGCACCCGAGTGTTGCGCGAGCCAGTGGCTGGTTGGCCCGTATAAGATAGTAAGTGCAATCTCGGC
For B3, in series [3], the binding result is reported as “no binding”.

B4: 36 (ssDNA)
DNA: GCGCATACCAGCTTATTCAATTCGGATAGACAACATGGGGAAGAACAGTGTCTAGTCGTGGGTTGCTCTGTAAGATAGTAAGTGCAATCTCGGC
As to B4, the binding result in series [4] was “binds”.

B5: P1 (ssDNA)
DNA: GCGCATACCAGCTTATTCAATTGCATAGTCATGCGGGAATAGTTTTCGATGAGGGCTATTGGAGGCCCCAGCAGATAGTAAGTGCAATCTCGGC
B5: the binding signal in series [5] is 12.7 % HSA bound.

B6: 19 (ssDNA)
DNA: GCGCATACCAGCTTATTCAATTAACGTGTAGAGGTGTTCACGCACCACGCCGACTGTGGTTGACCCACAGTTAGATAGTAAGTGCAATCTCGGC
In the case of B6, the binding signal in series [5] is 10.3 % HSA bound.

B7: H6 (ssDNA)
DNA: GCGCATACCAGCTTATTCAATTGCGTACCTAGGATTTACTTTCTCAAGATATTTGGAGTGACAAGTGGCATAAGATAGTAAGTGCAATCTCGGC
Regarding B7, the binding signal in series [5] worked out at 10 % HSA bound.

B8: H1 (ssDNA)
DNA: GCGCATACCAGCTTATTCAATTACGCTCAGGACTAAAAATGGGCGTGACCATGAGCTCAGTATGGGCGTTACAGATAGTAAGTGCAATCTCGGC
As for B8, the binding result in series [6] is “no binding”.

B9: 40 (ssDNA)
DNA: GCGCATACCAGCTTATTCAATTCGGTAGTGCAGCGGCTTGAAATCAGCCGTGCTTTCGGGACGGAACTACTCAGATAGTAAGTGCAATCTCGGC
B9: the binding signal in series [5] was 10.3 % HSA bound.

B10: H3 (ssDNA)
DNA: GCGCATACCAGCTTATTCAATTGATCCATACAAGGGTAGGTTGACTTCCGCCCAAGGGGGCGAGGCCGTGAGATAGTAAGTGCAATCTCGGC
Consider B10, for which the binding result in series [7] is given as “no binding”.

The values are drawn from US20180371460, “Depletion of Abundant Serum Proteins to Facilitate Biomarker Discovery” (UNIVERSITY OF UTAH RESEARCH FOUNDATION, published 2018).
